Consider one substance from publication doi:10.1101/2022.09.05.506711.

The term stoichiometry N denotes a count of units in the complex or per binding partner.

In the experiment the target is Francisella tularensis class II fructose-1,6-bisphosphatase (Francisella tularensis). The experiment is described as follows: crystal structure.

With “Francisella tularensis class II fructose-1,6-bisphosphatase (enzyme)”, the stoichiometry N was 4.
